Measured values taken from patent US20030199423A1 (published 2003).

B2: soluble human ICAM-R (receptor)
chain: QEFLLRVEPQNPVLSAGGSLFVNCSTDCPSSEKIALETSLSKELVASGMGWAAFNLSNVTGNSRILCSVYCNGSQITGSSNITVYGLPERVELAPLPPWQPVGQNFTLRCQVEGGSPRTSLTVVLLRWEEELSRQPAVEEPAEVTATVLASRDDHGAPFSCRTELDMQPQGLGLFVNTSAPRQLRTFVLPVTPPRLVAPRFLEVETSWPVDCTLDGLFPASEAQVYLALGDQMLNATVMNHGDTLTATATATARADQEGAREIVCNVTLGGERREARENLTVFSFLGPIVNLSEPTAHEGSTVTVSCMAGARVQVTLDGVPAAAPGQTAQLQLNATESDDGRSFFCSATLEVDGEFLHRNSSVQLRVLYGPKIDRATCPQHLKWKDKTRHVLQCQARGNPYPELRCLKEGSSREVPVGIPFFVNVTHNGTYQCQASSSRGKYTLVVVMDIEAFSSH
notes: baculovirus, Sf-9 cells, lentil lectin purified; also called shICAM-R; soluble ICAM-R

How the values were obtained:
[1] = molecular target: T1, ICAM-R/IgG chimera, wild type (human, UniProt P32942 30-485); test: ELISA on ICAM-R/Ig fusion protein
T1 construct: also called ICAM-3/IgG; ICAM-R/Ig fusion protein
T1 chain: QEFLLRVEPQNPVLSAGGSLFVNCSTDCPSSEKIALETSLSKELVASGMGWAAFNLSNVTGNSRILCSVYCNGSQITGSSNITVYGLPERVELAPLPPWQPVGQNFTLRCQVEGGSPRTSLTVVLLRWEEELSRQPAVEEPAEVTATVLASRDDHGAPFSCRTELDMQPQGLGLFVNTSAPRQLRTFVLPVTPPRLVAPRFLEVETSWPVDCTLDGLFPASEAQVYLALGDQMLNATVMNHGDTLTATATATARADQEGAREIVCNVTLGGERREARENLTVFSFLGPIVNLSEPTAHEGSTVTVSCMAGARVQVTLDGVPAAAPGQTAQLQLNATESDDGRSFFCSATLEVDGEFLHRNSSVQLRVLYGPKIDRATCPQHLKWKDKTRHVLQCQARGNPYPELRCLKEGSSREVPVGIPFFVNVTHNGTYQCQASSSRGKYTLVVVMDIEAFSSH

[2] = molecular target: B2; test: ELISA on coated baculovirus soluble ICAM-R
[3] = molecular target: T2, Gp 150,95 (CD18/CD11c) (UniProt P20702 20-1163; P05107 23-769); test: shICAM-R coated fluorescent beads on wells coated with purified Gp 150,95
T2 construct: purified, coated on plastic
T2 sequence (P20702 20-1163 limits assumed, chain 1 of 2): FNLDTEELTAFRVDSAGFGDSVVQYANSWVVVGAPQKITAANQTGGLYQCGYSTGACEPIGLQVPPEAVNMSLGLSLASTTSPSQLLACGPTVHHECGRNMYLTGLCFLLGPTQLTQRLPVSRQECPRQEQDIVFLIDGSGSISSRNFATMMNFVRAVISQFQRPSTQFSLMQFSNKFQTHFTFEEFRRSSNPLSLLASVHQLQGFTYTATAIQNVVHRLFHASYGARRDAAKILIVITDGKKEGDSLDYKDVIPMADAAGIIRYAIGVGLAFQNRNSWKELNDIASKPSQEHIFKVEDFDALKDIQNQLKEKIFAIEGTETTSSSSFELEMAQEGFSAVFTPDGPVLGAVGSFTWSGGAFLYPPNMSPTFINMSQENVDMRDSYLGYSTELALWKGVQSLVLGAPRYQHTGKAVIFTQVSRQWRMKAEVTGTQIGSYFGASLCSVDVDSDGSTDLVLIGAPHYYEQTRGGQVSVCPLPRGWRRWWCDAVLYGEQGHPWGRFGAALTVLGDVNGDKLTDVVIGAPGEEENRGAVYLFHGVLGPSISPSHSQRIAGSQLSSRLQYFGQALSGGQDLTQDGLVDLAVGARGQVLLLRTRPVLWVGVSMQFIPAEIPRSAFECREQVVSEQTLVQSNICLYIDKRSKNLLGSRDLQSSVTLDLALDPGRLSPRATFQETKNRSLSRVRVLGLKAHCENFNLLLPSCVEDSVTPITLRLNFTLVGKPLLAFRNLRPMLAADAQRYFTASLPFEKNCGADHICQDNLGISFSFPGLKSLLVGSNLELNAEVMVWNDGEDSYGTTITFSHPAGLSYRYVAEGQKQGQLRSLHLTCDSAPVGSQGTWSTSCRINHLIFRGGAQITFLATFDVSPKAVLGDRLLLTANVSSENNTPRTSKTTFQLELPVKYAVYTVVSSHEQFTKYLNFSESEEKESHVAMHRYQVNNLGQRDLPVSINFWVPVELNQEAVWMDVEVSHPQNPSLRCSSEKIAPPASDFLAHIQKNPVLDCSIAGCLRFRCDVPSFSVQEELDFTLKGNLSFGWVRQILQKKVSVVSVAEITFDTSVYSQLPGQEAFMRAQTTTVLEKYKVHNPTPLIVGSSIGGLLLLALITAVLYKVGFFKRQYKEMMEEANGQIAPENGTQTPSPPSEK
T2 sequence (P05107 23-769 limits assumed, chain 2 of 2): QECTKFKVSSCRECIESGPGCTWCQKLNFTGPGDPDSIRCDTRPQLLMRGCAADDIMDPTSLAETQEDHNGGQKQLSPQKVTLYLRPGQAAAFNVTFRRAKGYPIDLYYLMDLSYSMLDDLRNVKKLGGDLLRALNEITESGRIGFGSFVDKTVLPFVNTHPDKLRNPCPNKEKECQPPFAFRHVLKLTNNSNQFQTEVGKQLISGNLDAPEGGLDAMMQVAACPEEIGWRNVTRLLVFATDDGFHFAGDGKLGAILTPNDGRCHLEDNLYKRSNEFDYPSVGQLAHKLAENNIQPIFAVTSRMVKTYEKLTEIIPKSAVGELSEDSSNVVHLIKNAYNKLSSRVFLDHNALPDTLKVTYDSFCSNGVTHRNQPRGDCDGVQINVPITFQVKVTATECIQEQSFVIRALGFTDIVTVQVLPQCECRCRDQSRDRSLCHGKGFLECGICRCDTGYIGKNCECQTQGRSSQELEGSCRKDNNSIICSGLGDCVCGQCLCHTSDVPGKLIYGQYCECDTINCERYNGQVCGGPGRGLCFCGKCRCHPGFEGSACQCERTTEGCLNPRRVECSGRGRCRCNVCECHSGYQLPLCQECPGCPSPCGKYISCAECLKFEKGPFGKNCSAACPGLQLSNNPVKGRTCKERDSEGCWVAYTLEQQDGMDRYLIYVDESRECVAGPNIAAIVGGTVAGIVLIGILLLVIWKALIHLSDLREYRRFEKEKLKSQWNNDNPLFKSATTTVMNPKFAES

[4] = molecular target: Mac-1 (CD18/CD11b) (UniProt P11215 17-1152; P05107 23-769); test: neutrophil adhesion to coated chimeras with blocking antibodies
[5] = molecular target: T3, ICAM-R mutant F21V/AS (human, UniProt P32942 30-547); test: FACS on COS transfectants
T3 construct: on transfected COS cells
T3 chain: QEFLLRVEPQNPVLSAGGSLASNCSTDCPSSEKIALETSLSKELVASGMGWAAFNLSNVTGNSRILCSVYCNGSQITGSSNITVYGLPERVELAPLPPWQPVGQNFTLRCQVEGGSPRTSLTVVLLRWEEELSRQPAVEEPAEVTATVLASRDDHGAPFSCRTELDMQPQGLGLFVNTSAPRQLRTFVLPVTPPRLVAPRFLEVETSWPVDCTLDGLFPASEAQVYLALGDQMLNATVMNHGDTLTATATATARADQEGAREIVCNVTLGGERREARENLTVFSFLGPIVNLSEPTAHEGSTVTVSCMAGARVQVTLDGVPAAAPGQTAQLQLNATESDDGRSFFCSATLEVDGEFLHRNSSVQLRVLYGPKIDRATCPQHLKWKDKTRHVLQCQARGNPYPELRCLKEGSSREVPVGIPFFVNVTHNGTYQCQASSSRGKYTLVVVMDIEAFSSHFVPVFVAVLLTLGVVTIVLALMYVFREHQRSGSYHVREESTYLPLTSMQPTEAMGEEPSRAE

[6] = molecular target: T4, macaque ICAM-R on peripheral blood leukocytes (Macaca fascicularis, UniProt A0A2K5TJA8 30-547); test: FACS on Macaca fascicularis PBL
T4 construct: whole, on cells; also called monkey PBL; macaque leukocytes
T4 sequence: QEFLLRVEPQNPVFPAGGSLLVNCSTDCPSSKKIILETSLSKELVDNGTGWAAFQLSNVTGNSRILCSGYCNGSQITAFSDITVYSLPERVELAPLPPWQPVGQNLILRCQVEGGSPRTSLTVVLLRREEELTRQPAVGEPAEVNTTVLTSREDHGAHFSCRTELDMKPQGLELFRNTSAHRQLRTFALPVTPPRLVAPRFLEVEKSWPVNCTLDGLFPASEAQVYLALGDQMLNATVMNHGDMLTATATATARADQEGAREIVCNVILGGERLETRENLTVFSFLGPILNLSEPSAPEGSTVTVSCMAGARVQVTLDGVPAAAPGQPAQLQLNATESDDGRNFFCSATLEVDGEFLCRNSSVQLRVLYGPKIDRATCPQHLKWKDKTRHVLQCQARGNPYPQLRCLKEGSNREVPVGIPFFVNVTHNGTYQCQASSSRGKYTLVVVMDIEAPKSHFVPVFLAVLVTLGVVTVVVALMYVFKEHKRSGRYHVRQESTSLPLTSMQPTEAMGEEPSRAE

B1: humanized ICR-1.1 antibody HuVHK/HuVKP (antibody, human IgG4, V domains shown)
VH: QVQLVQSGAEVKKPGASVKVSCKASGYTFTVYWMHWVRQAPGQGLEWMGYINPNTDYTEYNQRFQDRVTITADKSTSTAYMELSSLRSEDTAVYYCARWGGNSYGLDYWGQGTLVTVSS
VL: DIQMTQSPSSLSASVGDRVTITCSASSSVSYIYWYQQKPGKAPKPLIYLTSNLASGVPSRFSGSGSGTDFTLTISSLQPEDFATYYCQQWKSIPLTFGQGTKLEIK
notes: human IgG4, human kappa
[1]
  binding relative to the chimeric antibody (MuVH/MuVK): ≤ 50 % difference
[2]
  binding relative to the chimeric antibody (MuVH/MuVK): ≤ 50 % difference

## B2
[3]
  binding result: binds

B3: ICAM-2/IgG fusion protein (Fc fusion, not shown: a dimerising Fc or GST)
chain: KVFEVHVRPKKLAVEPKGSLEVNCSTTCNQPEVGGLETSLDKILLDEQAQWKHYLVSNISHDTVLQCHFTCSGKQESMNSNVSVYQPPRQVILTLQPTLVAVGKSFTIECRVPTVEPLDSLTLFLFRGNETLHYETFGKAAPAPQEATATFNSTADREDGHRNFSCLAVLDLMSRGGNIFHKHSAPKMLEIYEPVSDSQ
[4]
  binding result: binds

B4: monoclonal antibody ICR-8.1 (antibody, mouse IgG1, V domains shown)
VH: EIQLQQTGPELVKPGASVKISCKASGYSFTDCIILWVKQSHGKGLEWIGKINPYFGTTTYNLKFKGKATLTVDKSSSTAHMQLNSLTSEDSAVYYCARKEAYPDAMDYWGQGTSVTVSS
VL: DAVMTQTPLSLPVSLGDQASISCRSSQSLVHSNGDTYLHWYLQKPGQSPQLLIYKVSNRFSGVPDRFSGSGSGTDFTLKLSRVEAEDLGVYFCSQSTHVPYTFGGGTKLEIK
notes: murine IgG1, kappa; hybridoma ATCC HB 11232; also called 46D7E
[5]
  binding result: no binding
[6]
  binding result: no binding

B5: monoclonal antibody ICR-1.1 (antibody, mouse IgG2a, V domains shown)
VH: QVQLQQSGAELAKPGASVKMSCKASGYTFTVYWMHWVKQRPGQGLEWIGYINPNTDYTEYNQRFQDKATLTADKSSSTAYMQLSSLTSEDSAVYYCARWGGNSYGLDYWGQGTSVTVSS
VL: QIVLTQSPALMSASPGEKVTMTCSASSSVSYIYWYQQKPRSSPKPWIYLTSNLASGVPARFSGSGSGASYSLTISIMEAEDAATYYCQQWKSIPLTFGAGTKLELK
notes: murine IgG2a, kappa; hybridoma ATCC HB 11053; also called 26E3D; 26E3D-1
[5]
  binding result: no binding
[6]
  binding result: no binding
